Source: patent publication US20220356267A1 (JIANGSU KANION PHARMACEUTICAL, published 2022)

Key:
[1] = target: T1, recombinant human CD73 protein (ecto-5'-nucleotidase), expressed by the applicant, C-terminal 6x His tag (human, UniProt P21589 27-547); experiment: SPR, Biacore T200, antibody captured by anti-mouse Fc IgG, human CD73 injected, 25 °C, 1:1 fit
T1 sequence: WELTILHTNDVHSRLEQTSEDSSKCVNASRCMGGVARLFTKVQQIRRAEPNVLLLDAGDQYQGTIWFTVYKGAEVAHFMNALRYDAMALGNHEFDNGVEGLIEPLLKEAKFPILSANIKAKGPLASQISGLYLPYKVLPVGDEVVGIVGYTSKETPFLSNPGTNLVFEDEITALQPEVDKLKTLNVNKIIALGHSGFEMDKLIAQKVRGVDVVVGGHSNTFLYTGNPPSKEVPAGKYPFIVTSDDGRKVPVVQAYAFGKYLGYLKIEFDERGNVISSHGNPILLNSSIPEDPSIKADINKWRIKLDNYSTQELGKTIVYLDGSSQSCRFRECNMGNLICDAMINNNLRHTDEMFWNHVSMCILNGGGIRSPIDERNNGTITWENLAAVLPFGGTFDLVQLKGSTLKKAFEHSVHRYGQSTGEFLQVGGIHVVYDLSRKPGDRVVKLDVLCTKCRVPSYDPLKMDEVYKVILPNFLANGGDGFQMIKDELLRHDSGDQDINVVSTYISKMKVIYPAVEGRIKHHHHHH
Procedure: (§1) Anti-mouse Fc IgG was fixated on a CMS sensor chip by amine coupling in order to capture the antibody under test with the coupled anti-mouse Fc IgG. A series of human CD73 proteins having a predetermined concentration gradient were then injected, before the pH 1.7 glycine-HCl regeneration testing system that came with the reagent kit was used.
(§2) HBS-EP+ (10 mM HEPES; pH7.4, 150 mM NaCl; 3 mM EDTA; and 0.05% P20) was used as the running buffer, and the testing temperature was 25° C.
(§3) The binding constant (Ka), dissociation rate constant (Kd), and equilibrium constant (KD) were calculated with the Biacore T200 evaluation software by combining the model fitting data at a 1:1 ratio.

[2] = target: T1, recombinant human CD73 protein …; experiment: cell-based or functional assay
[3] = target: T2, CD73 on A549 cells (UniProt P21589 27-549, limits assumed); experiment: cell-based or functional assay
T2 sequence (looked up): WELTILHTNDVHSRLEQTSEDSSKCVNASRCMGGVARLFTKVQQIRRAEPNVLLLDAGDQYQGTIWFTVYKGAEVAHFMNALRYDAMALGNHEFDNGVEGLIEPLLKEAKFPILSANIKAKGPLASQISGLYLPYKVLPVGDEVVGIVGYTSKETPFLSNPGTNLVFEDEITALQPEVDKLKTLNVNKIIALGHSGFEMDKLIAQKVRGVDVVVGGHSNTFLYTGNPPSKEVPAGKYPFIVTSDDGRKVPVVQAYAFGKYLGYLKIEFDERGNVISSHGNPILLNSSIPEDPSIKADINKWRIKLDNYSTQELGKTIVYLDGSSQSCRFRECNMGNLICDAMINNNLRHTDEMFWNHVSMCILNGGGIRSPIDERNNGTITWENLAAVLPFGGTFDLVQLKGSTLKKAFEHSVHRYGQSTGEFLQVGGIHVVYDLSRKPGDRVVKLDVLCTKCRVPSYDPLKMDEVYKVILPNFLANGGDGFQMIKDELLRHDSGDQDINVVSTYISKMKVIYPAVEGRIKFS

[4] = target: T1, recombinant human CD73 protein …; experiment: SPR (Biacore T200), antibody captured on anti-mouse Fc IgG chip, human CD73 injected in a concentration series, 25 C, 1:1 fit; the sheet prints E-4 where the 1st table, row 5, column 4 prints 10^-5; E-4 agrees with the printed ka 4.764E+5 and KD 8.129E-10
Procedure: as §1, §2, §3

Binder | Kd [1] [nM] | koff [1] [s⁻¹] | kon [1] [M⁻¹ s⁻¹] | EC50 (µg/mL), Biochemical level, inhibition of the enzyme activity of CD73 [2] [µg/mL] | EC50 (µg/mL), Cell level (A549 cells), inhibition of the enzyme activity of CD73 [3] [µg/mL] | koff [4] [s⁻¹]
anti-CD73 monoclonal antibody E1-B6 (antibody, V domains shown, Mouse hybridoma antibody of the IgG type, purified from ascitic fluid) VH: VKLQESGAELARPGASVKLSCKASGYTFTDYYINWVKQRTGQGLEWIGETYPGNGNTYYHEKFKGKATLTADRSSSTAYMQLSSLTSEDSAVYFCARGTYYGSSEYFDYWGQGTTVTVSS VL: DIVMTQSPKFMSTSVGDRVSITCKASQNVGTAVAWYQQRPGQSPKLLIYSASNRNTGVPDRFTGSGSGTDFTLTISNMQSEDLADYFCQQYSSYIFTFGSGTKLEIN | 0.813 | 0.000387 | 476000 | 0.232 | 0.182 | 0.000387
anti-CD73 monoclonal antibody 9-4 (antibody, V domains shown, Mouse hybridoma antibody of the IgG type, purified from ascitic fluid) VH: not shown VL: DIQMTQSPAALSASVGETVTITCRASGNIHNYLAWYQQKQGKSPQLLVYNTQILADGVPSRFSGSGSGTQYSLKINSLQPEDFGTFYCQHFWDSPWTFGGGTKMEIK | 0.452 | 0.00015 | 332000 | 0.211 | 0.175 | –
anti-CD73 monoclonal antibody 81-2-2 (antibody, V domains shown, Mouse hybridoma antibody of the IgG type, purified from ascitic fluid) VH: QVQLQQPGAELVKPGASVKLSCKASGYTFTSYWMHWVKQRPGQGLEWIGEINPSNGRTNYNEKFKSKATLTVDKSSSTAYMQLSSLTSEDSAVYYCARRGTSGNFFDYWGQGTTLTVSS VL: DIKMTQSPSSMYASLGERVTITCKASQDINTYLSWFQQKPGKSPKTLIYRANRLVDGVPSRFSGSGSGQDYSLTISSLEYEDMGIYYCLQFDEFPYTFGGGTKLEIK | 0.49 | 0.000104 | 212000 | 0.239 | 0.213 | –
anti-CD73 monoclonal antibody 06-6 (antibody, V domains shown, Mouse hybridoma antibody of the IgG type, purified from ascitic fluid) VH: QVQLQQSGPELVKPGASVRISCKASGYTFADYFMHWVRLRPGQGLEWIGWIYPGYVNIKYNEKFKGKATLTADKSSSTAYMQLSSLTSEDSAVYFCARGEDYDSAMDYWGQGTSVTVSS VL: GVVMTQTPLSLPVSLGDQASISCRSSQSLVHSNGNTYLHWYLQKPGQSPKLLIYKVSNRFSGVPDRFSGSGSGTDFTLKISRVEAEDLGVYFCSQSTHVPPWTFGGGTKLEIK | 0.753 | 0.000183 | 242000 | 0.206 | 0.147 | –
anti-CD73 monoclonal antibody F2-2 (antibody, V domains shown, Mouse hybridoma antibody of the IgG type, purified from ascitic fluid) VH: VQLQESGPGLVKPSQSLSLTCTVTGHSITSDYVWNWIRQFPGNKLEWMGYISYSGIIKYNPSLKSRISITRDTSKNQFFLQLNSVTTEDTATYYCAGDEYFWFAYWGQGTTVTVSS VL: DIQMTQSPSSMYASLGERVTITCKASQDIKSYLSWYQQKPWKSPKTLIYYATNLADGVPSRFSGSGSGQDYSLTISSLESDDTATYYCLQHGESPYTFGGGTKLEIK | 0.0318 | 1.71e-05 | 538000 | 0.109 | 0.0397 | –
